One data set has as its target T1, Swi5-Sfr1 complex (UniProt Q9UUB7 1-85; Q9USV1 1-299).
T1 construct: Swi5, subunit of the Swi5-Sfr1 complex; Sfr1, subunit of the Swi5-Sfr1 complex; Over-expressed and purified as a preformed complex; detected in the co-IP by blots for Sfr1 and Swi5; No tag is mentioned; also called Swi5-Sfr1 auxiliary factor; source: E. coli BL21-Codonplus(DE3) RIPL, purified as a complex (ammonium sulfate, Q Sepharose, HiTrap Heparin, Superdex 200)
T1 sequence (looked up) 1: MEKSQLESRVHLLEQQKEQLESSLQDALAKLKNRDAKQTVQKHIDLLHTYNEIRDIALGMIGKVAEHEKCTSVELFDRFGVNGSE
T1 sequence (looked up) 2: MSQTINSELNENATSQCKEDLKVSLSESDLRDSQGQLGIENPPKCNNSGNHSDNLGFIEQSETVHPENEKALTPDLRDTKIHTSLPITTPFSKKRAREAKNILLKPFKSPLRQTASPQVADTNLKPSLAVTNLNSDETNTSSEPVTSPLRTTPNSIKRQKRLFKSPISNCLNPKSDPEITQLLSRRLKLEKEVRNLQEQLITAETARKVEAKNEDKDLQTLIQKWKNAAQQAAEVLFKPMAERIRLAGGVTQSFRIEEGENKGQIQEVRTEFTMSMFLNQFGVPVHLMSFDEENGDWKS
Briefly: co-IP; purified Rad51 (2.5 uM) and Swi5-Sfr1 (2.5 uM) mixed in 30 mM Tris-HCl pH 7.5, 20 mM KCl, 3 mM MgCl2, 1 mM DTT, 5% glycerol, 0.05% NP-40, 30 min at 4 °C; precipitated with rabbit anti-Rad51 antibody and protein G magnetic beads; western blots for Rad51, Sfr1 and Swi5. Particulars: both partners purified. On the technique in general: A western blot detects proteins with antibodies after separation by electrophoresis.

Data set [1] has as its target T2, Rad51-L2 (Schizosaccharomyces pombe, UniProt P36601 1-365, V295A).
T2 sequence: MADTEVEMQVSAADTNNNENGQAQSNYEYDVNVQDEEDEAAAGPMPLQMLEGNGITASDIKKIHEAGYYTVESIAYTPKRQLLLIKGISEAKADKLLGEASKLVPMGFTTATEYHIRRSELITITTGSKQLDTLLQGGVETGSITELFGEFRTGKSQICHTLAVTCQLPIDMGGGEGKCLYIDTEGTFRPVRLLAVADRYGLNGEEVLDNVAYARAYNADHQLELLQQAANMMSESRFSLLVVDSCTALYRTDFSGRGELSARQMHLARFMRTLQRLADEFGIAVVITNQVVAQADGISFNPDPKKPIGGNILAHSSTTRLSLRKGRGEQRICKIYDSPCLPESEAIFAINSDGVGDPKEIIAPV
Briefly: FRET; 1 mM ATP; 1.40x B-form; 30 mM HEPES-KOH pH 7.5, 100 mM KCl, 3 mM MgCl2, 1 mM DTT, 5% glycerol, 1 mM ATP, 25 C (EMSA: 2 mM ATP, 37 C, then 0.2% glutaraldehyde). Particulars: protein: recombinant; label: internal fluorescein and ROX.

Another data set concerns the target T3, Rad51-L1 (Schizosaccharomyces pombe, UniProt P36601 1-365, R257A).
T3 sequence: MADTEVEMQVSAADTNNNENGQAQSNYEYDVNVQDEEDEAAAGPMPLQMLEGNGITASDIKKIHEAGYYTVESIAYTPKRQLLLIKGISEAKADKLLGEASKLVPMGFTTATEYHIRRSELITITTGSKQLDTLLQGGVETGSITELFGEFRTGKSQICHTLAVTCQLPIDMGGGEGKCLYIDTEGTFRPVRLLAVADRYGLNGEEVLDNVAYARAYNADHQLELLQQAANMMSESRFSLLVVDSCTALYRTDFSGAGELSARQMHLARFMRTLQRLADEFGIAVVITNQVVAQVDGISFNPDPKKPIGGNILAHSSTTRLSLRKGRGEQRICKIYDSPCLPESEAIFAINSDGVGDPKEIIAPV
Description: FRET; 1 mM ATP; elongation comparable to WT; 30 mM HEPES-KOH pH 7.5, 100 mM KCl, 3 mM MgCl2, 1 mM DTT, 5% glycerol, 1 mM ATP, 25 C (EMSA: 2 mM ATP, 37 C, then 0.2% glutaraldehyde). The settings on record: protein: recombinant; label: internal fluorescein and ROX. (In general: In EMSA bound probe runs differently from free probe, usually more slowly.)

The target in another data set is T4, Rad51-S2 (Schizosaccharomyces pombe, UniProt P36601 1-365, R324A;K334A).
T4 sequence: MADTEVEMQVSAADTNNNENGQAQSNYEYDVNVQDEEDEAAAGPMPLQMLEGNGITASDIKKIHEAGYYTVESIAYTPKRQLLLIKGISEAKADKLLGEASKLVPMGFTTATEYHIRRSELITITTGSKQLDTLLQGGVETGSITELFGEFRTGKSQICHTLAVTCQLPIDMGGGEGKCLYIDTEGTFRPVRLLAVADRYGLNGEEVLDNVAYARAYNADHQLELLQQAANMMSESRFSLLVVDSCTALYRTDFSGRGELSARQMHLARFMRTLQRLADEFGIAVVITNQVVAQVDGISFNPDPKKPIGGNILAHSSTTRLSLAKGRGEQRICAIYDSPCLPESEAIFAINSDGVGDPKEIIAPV
Described as above. Particulars: protein: recombinant; label: internal fluorescein and ROX.

Data set [2] addresses T5, Rad51 wild-type (Schizosaccharomyces pombe, UniProt P36601 1-365).
T5 sequence: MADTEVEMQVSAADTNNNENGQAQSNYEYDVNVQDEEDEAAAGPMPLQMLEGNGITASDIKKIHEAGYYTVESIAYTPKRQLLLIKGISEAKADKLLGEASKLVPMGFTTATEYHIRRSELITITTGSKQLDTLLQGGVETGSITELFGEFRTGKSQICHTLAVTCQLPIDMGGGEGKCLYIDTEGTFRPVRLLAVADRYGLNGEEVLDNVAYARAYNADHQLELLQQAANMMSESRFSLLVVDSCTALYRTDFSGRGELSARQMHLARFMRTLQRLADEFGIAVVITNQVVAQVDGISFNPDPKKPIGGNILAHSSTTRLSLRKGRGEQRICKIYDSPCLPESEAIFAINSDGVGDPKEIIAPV
Briefly: FRET; 1 mM ATP; ssDNA elongated to 1.45x B-form; 30 mM HEPES-KOH pH 7.5, 100 mM KCl, 3 mM MgCl2, 1 mM DTT, 5% glycerol, 1 mM ATP, 25 C (EMSA: 2 mM ATP, 37 C, then 0.2% glutaraldehyde). Particulars: protein: recombinant; label: internal fluorescein and ROX.

The target in data set [3] is T5, Rad51 wild-type. Description: FRET; 1 mM ATP; dsDNA elongated to 1.37x B-form; 30 mM HEPES-KOH pH 7.5, 100 mM KCl, 3 mM MgCl2, 1 mM DTT, 5% glycerol, 1 mM ATP, 25 C (EMSA: 2 mM ATP, 37 C, then 0.2% glutaraldehyde). Particulars: protein: recombinant; label: internal fluorescein and ROX on strand 1; blunt.
Data set [4] has as its target T2, Rad51-L2. Briefly: FRET; 1 mM ATP; reduced elongation, 1.28x B-form; 30 mM HEPES-KOH pH 7.5, 100 mM KCl, 3 mM MgCl2, 1 mM DTT, 5% glycerol, 1 mM ATP, 25 C (EMSA: 2 mM ATP, 37 C, then 0.2% glutaraldehyde). Particulars: protein: recombinant; label: internal fluorescein and ROX on strand 1; blunt.

B1: wild-type Rad51 from the fission yeast Schizosaccharomyces pombe (natural protein, UniProt P36601 1-365, looked up)
chain: MADTEVEMQVSAADTNNNENGQAQSNYEYDVNVQDEEDEAAAGPMPLQMLEGNGITASDIKKIHEAGYYTVESIAYTPKRQLLLIKGISEAKADKLLGEASKLVPMGFTTATEYHIRRSELITITTGSKQLDTLLQGGVETGSITELFGEFRTGKSQICHTLAVTCQLPIDMGGGEGKCLYIDTEGTFRPVRLLAVADRYGLNGEEVLDNVAYARAYNADHQLELLQQAANMMSESRFSLLVVDSCTALYRTDFSGRGELSARQMHLARFMRTLQRLADEFGIAVVITNQVVAQVDGISFNPDPKKPIGGNILAHSSTTRLSLRKGRGEQRICKIYDSPCLPESEAIFAINSDGVGDPKEIIAPV
notes: Rad51 recombinase, Schizosaccharomyces pombe; No tag is mentioned; purification is by conventional chromatography; also called SpRad51; WT
Regarding B1, in the data set with Swi5-Sfr1 complex, the binding result was “binds”.

B2: Rad51-S2 mutant (R324A and K334A in site II) (natural protein, Schizosaccharomyces pombe, UniProt P36601 1-365, looked up)
chain: MADTEVEMQVSAADTNNNENGQAQSNYEYDVNVQDEEDEAAAGPMPLQMLEGNGITASDIKKIHEAGYYTVESIAYTPKRQLLLIKGISEAKADKLLGEASKLVPMGFTTATEYHIRRSELITITTGSKQLDTLLQGGVETGSITELFGEFRTGKSQICHTLAVTCQLPIDMGGGEGKCLYIDTEGTFRPVRLLAVADRYGLNGEEVLDNVAYARAYNADHQLELLQQAANMMSESRFSLLVVDSCTALYRTDFSGRGELSARQMHLARFMRTLQRLADEFGIAVVITNQVVAQVDGISFNPDPKKPIGGNILAHSSTTRLSLAKGRGEQRICAIYDSPCLPESEAIFAINSDGVGDPKEIIAPV
notes: Rad51 recombinase, Schizosaccharomyces pombe, with R324A and K334A in site II; source: E. coli BL21-Codonplus(DE3) RIPL, purified (same procedure as wild-type Rad51)
With B2, the binding result with Swi5-Sfr1 complex is on record as “binds”.

B3: Rad51-L2 mutant (V295A in loop 2) (natural protein, Schizosaccharomyces pombe, UniProt P36601 1-365, looked up)
chain: MADTEVEMQVSAADTNNNENGQAQSNYEYDVNVQDEEDEAAAGPMPLQMLEGNGITASDIKKIHEAGYYTVESIAYTPKRQLLLIKGISEAKADKLLGEASKLVPMGFTTATEYHIRRSELITITTGSKQLDTLLQGGVETGSITELFGEFRTGKSQICHTLAVTCQLPIDMGGGEGKCLYIDTEGTFRPVRLLAVADRYGLNGEEVLDNVAYARAYNADHQLELLQQAANMMSESRFSLLVVDSCTALYRTDFSGRGELSARQMHLARFMRTLQRLADEFGIAVVITNQVVAQADGISFNPDPKKPIGGNILAHSSTTRLSLRKGRGEQRICKIYDSPCLPESEAIFAINSDGVGDPKEIIAPV
notes: Rad51 recombinase, Schizosaccharomyces pombe, with V295A in L2; source: E. coli BL21-Codonplus(DE3) RIPL, purified (same procedure as wild-type Rad51)
As for B3, the binding result with Swi5-Sfr1 complex is recorded as “binds”.

B4: Rad51-L1 mutant (R257A in loop 1) (natural protein, Schizosaccharomyces pombe, UniProt P36601 1-365, looked up)
chain: MADTEVEMQVSAADTNNNENGQAQSNYEYDVNVQDEEDEAAAGPMPLQMLEGNGITASDIKKIHEAGYYTVESIAYTPKRQLLLIKGISEAKADKLLGEASKLVPMGFTTATEYHIRRSELITITTGSKQLDTLLQGGVETGSITELFGEFRTGKSQICHTLAVTCQLPIDMGGGEGKCLYIDTEGTFRPVRLLAVADRYGLNGEEVLDNVAYARAYNADHQLELLQQAANMMSESRFSLLVVDSCTALYRTDFSGAGELSARQMHLARFMRTLQRLADEFGIAVVITNQVVAQVDGISFNPDPKKPIGGNILAHSSTTRLSLRKGRGEQRICKIYDSPCLPESEAIFAINSDGVGDPKEIIAPV
notes: Rad51 recombinase, Schizosaccharomyces pombe, with R257A in L1; source: E. coli BL21-Codonplus(DE3) RIPL, purified (as wild-type Rad51, with a HiTrap Blue column instead of HiTrap Heparin)
On to B4, for which the binding result in the data set with Swi5-Sfr1 complex is given as “binds”.

B5: 16(A)(-)_F+R_73 ssDNA (ssDNA)
DNA: AAATGAACATAAAGTAAATAAGTATAAGGATAATACAAAATTAAGTAAATGAATAAACATAGAAAATAAAGTA
modifications: fluorescein-dT at 31; ROX-dT at 42
For B5, the binding result with Rad51-L2 [1], in the data set with Rad51-L1, with Rad51-S2 and with Rad51 wild-type [2] was “binds” each time.

B6: 16(A)(-)_F+R_73 bp duplex (dsDNA)
DNA 1: AAATGAACATAAAGTAAATAAGTATAAGGATAATACAAAATTAAGTAAATGAATAAACATAGAAAATAAAGTA
DNA 2: TACTTTATTTTCTATGTTTATTCATTTACTTAATTTTGTATTATCCTTATACTTATTTACTTTATGTTCATTT
modifications: fluorescein-dT at 31 and ROX-dT at 42 of strand 1
With B6, the binding result in the data set with Rad51 wild-type [3] and with Rad51-L2 [4] was “binds” each time.

For the origin of these results see article PMC7289862, “Real-time tracking reveals catalytic roles for the two DNA binding sites of Rad51” (Nature Communications, 2019).
